From patent publication US8673307

Columns and labels:
YU2-gp120 (HIV-1 (YU2)) = YU2-gp120 (HIV-1 (YU2)) (UniProt P35961); assay: competition ELISA on gp120; unlabeled b12 against biotin labeled b12 (self-inhibition)
[1] = molecular target: YU2-gp140 trimer (artificially trimerized gp140 protein) (HIV-1 (YU2)) (UniProt P35961); assay: SPR (Biacore T100), antibody immobilized on CM5 chip, gp140 trimer injected, 1:1 model

Substance b12 (antibody) has an IC50 (YU2-gp120 (HIV-1 (YU2))) of 5 µg/mL and a Kd [1] of 12 nM.
